For 1 molecule, sedimentation coefficient (s20,w) of the YFP-Hsp90/PPH-5 complex in presence of the peptide results are on record in patent EP2878677A1, “Activators of protein phosphatase 5” (Deutsches Zentrum für Neurodegenerative Erkrankungen e.V. …, priority 2013, dated 2015).

The target in the experiment is PPH-5 (C. elegans protein phosphatase 5) (C. elegans). The experiment is described as follows: competition in sedimentation velocity AUC; 60 uM peptide, 300 nM YFP-Hsp90, 3 uM PPH-5; the peptide competes with YFP-Hsp90.

B1: C-terminal Hsp90/DAF-21 peptide (…) (peptide)
peptide: AEEDASRMEEVD
On to B1, for which the sedimentation coefficient (s20,w) of the YFP-Hsp90/PPH-5 complex in presence of the peptide was 7.6 S.
